From publication PMC4414194

Key:
HDAC3 = HDAC3 (UniProt O15379); assay: anti-GFP co-IP, anti-Flag blot; details: reference: GATA1 wild type; sites S161,S187
HDAC4 = HDAC4 (UniProt P56524); assay: anti-GFP co-IP, anti-Flag blot; details: reference: GATA1 wild type; sites S161,S187

- binding against the reference (HDAC3): weaker
- binding against the reference (HDAC4): weaker
Substance: GATA1 (from UniProt P15976) GATA1 S161A S187A
